The values below come from article PMC4694752 (Molecular Biology of the Cell, 2016).

Holding throughout (assay): pull-down
For test [1], the target named is T1, GST-Sec23 (yeast, UniProt P15303 1-768).
T1 sequence (looked up): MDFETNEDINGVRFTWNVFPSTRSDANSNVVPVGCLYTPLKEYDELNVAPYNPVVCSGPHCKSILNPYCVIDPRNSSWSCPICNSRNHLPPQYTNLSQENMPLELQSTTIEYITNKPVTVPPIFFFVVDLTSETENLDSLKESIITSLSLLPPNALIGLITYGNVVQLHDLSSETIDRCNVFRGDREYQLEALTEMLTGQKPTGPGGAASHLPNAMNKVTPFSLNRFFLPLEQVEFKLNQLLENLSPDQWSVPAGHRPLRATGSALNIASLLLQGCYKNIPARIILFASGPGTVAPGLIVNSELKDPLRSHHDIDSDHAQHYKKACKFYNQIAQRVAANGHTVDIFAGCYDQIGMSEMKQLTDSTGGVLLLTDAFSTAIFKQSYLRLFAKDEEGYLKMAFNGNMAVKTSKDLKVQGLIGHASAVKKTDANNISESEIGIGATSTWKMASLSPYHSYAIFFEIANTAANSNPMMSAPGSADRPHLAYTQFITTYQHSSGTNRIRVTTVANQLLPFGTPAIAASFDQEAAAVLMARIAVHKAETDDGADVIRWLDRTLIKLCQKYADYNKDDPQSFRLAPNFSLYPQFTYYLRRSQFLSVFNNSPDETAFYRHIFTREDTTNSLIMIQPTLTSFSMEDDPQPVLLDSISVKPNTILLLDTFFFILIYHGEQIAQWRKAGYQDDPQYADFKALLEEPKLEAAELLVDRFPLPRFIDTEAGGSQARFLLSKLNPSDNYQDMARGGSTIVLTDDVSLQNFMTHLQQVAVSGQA

For test [2], the target named is T2, GST-Sec24 (yeast, UniProt P40482 1-926).
T2 sequence (looked up): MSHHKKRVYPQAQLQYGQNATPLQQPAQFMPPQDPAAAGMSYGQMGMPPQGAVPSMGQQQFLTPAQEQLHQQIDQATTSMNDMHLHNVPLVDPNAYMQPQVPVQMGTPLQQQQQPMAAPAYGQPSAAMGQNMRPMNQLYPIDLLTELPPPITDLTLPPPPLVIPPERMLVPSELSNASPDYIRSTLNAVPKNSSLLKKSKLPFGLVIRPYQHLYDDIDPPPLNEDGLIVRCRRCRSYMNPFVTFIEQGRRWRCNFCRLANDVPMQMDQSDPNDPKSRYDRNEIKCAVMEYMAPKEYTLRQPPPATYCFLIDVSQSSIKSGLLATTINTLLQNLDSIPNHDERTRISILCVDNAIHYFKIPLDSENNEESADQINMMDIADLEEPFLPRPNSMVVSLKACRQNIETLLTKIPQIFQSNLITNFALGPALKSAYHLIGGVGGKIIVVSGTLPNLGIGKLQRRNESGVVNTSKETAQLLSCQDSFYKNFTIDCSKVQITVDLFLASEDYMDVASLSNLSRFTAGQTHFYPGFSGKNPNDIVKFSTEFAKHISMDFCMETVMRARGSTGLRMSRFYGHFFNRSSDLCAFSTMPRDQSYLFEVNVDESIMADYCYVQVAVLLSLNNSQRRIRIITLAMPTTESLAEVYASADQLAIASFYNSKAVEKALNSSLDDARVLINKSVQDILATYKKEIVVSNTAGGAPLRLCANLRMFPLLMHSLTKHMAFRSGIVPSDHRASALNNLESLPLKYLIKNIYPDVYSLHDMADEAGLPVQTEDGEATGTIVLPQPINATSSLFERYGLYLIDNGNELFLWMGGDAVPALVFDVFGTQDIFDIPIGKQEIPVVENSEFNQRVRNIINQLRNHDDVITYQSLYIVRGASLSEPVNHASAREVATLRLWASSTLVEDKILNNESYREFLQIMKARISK

Test [3] has as its target T3, His6-Sec31 (aa 1–500) (yeast, UniProt P38968 1-500).
T3 sequence (looked up): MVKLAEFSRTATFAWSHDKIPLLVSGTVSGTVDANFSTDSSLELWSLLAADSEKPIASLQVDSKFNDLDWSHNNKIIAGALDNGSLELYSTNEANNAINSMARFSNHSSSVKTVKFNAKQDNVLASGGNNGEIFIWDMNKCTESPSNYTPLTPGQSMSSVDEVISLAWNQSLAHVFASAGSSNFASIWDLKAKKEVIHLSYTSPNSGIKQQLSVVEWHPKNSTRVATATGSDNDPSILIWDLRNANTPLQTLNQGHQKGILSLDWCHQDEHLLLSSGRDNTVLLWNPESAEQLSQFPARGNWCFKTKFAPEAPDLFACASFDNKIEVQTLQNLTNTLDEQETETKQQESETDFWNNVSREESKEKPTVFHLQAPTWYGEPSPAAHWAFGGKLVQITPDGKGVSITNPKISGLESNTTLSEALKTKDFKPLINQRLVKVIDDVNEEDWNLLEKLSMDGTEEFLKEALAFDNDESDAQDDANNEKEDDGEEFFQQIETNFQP

B1: His6-auxilin (natural protein, yeast, UniProt Q06677 1-668, looked up)
chain: MSDPFAHLLTSLKNKDSASASKETTPQSSNSPSITGSAVADVARTDKSPNDSLHSISAPPLIPSPKVDFSAPPLVPTNSTTKSNTANNTPPSALANTDDDFNQLFGMGTVTTTDTIQKPDEDYYGSKEDHLYNGDDALVDEVKDMEIARLMSLGLSIEEATEFYENDVTYERYLEILKSKQKERNDLAIRKKESGIKMEKSGLSNIVGTDSNNLFSMATDFFNKGKKLVDQWTSFPPEANDRLNNYSKTHDKVEDYDLPQVNDSPNRILFEDNEVVENLPPADNPDQDLLTDFETKIDITKRTAPDVSHSSSPTSGILIEENSRRNEPLIEDSLLDFSEGNLTNSKSNEDSTLFNENSNTDSTIPISDIELSGYNEFKAKGTSLFKNGDYINSLQEYEKSLNTLPLNHPLRIIALSNIIASQLKIGEYSKSIENSSMALELFPSSKAKWKNKISNSDPERSFNDIWPKIMIRRAESFEHLESFKKALETYQELIKKNFFDDKIMQGKRRCQDFINPPPVKKSMPVKKKTTTTSPATKKQNLTASSSNSPISVDSTSEIKKRELENAKLALYDKVFEKISSWKDGKDDDIRHLLANLSSLLTWCNWKDVSMQDLVMPKRVKITYMKAVAKTHPDKIPESLSLENKMIAENIFSTLSIAWDKFKLQNDIN
With B1, the binding result in test [1] and in test [2] was “binds” throughout.

B2: GST-auxilin-TPR domain (aa 363–561) (domain or fragment, yeast, UniProt Q06677 363-561, looked up)
chain: TIPISDIELSGYNEFKAKGTSLFKNGDYINSLQEYEKSLNTLPLNHPLRIIALSNIIASQLKIGEYSKSIENSSMALELFPSSKAKWKNKISNSDPERSFNDIWPKIMIRRAESFEHLESFKKALETYQELIKKNFFDDKIMQGKRRCQDFINPPPVKKSMPVKKKTTTTSPATKKQNLTASSSNSPISVDSTSEIKKR
Turning to B2, the binding result in test [3] is reported as “binds”.
